From patent US20070027089A1 (POSCO, published 2007)
Where no end group is shown, it is not given here. The star is where a group is joined. Biotin = O=C1N[C@H]2[C@H](CS[C@H]2CCCCC(=O)*)N1; Dnp = O=[N+]([O-])c1ccc(*)c([N+](=O)[O-])c1; Mca = COc1ccc2c(CC(=O)*)cc(=O)oc2c1

What was measured:
[1] = biological target: T1, f-Sub M (7-methoxycoumarin-4-acetyl-SEVNLDAEFRK(Dnp)-RR-NH2); experiment: cell-based or functional assay
T1 peptide: Mca-SEVNLDAEFRK(Dnp)RR-NH2

[2] = biological target: T2, biotin-labeled Substrate W; experiment: plate assay: HC peptide chemically coupled to plate, bio-Sub W, Str-HRP (FIG. 27)
T2 construct: also called bio-Sub W; N-terminally biotinylated Substrate W
T2 peptide: Biotin-SEVKMDAEFR
Description: (§1) Reacti-BindTM maleic anhydride-activated polystyrene plate (Pierce, Ill., USA) was coated with 50 μl of HC peptide (200 μM in distilled water) by chemical coupling for 3 h at room temperature (RT) and washed three times with phosphate buffered saline (PBS) containing 0.05% tween 20 (PBST). The plate was blocked with blocking buffer (0.5% gelatin in PBS) for 1 h at RT. After discarding blocking buffer, biotinylated BACE1 substrates (200 μM) in blocking buffer was applied on the plate and incubated for 2.5 h at RT. Each well was washed three times with PBST. The bound biotinylated BACE1 substrates were detected by incubation with streptavidin-horseradish peroxidase (Str-HRP, 125 mU/ml in blocking buffer) for 2 h at RT. Color reaction was carried out with 50 μl of 3,3′,5,5′-Tetramethylbenzidine Liquid Substrate (Sigma-Aldrich, Mo., USA). After stopping the reaction by addition of an equal volume of 1 N HCl, absorbance at 450 nm was read in an automated ELISA reader (EL 312e, Bio-Tek Instruments, VT, USA). All assays were carried out in duplicate.

[3] = biological target: T3, recombinant human β-secretase (rhBACE1) (human, UniProt P56817 22-457, limits assumed); experiment: ELISA, c-Sub M immobilised
T3 construct: Bought
T3 sequence (P56817 22-457 limits assumed): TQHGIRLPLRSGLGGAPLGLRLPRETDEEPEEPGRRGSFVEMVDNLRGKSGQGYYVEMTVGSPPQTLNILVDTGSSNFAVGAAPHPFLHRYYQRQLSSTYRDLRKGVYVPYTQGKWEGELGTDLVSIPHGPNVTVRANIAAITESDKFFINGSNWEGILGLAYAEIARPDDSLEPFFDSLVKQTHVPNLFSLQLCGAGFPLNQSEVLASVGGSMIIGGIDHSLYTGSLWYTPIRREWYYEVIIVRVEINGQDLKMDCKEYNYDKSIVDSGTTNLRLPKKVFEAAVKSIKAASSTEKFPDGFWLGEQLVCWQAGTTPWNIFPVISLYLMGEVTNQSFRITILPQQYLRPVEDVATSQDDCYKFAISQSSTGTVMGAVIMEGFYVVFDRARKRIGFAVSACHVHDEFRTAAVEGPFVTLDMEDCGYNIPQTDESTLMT

[4] = biological target: T4, biotin-labeled Substrate M; experiment: plate assay: complementary peptide immobilised, biotinylated substrate, streptavidin-HRP
T4 construct: also called bio-Sub M; N-terminally biotinylated Substrate M
T4 peptide: Biotin-SEVNLDAEFR

[5] = biological target: T5, Sub-ST6Gal1 (non-labelled); experiment: cell-based or functional assay
T5 peptide: DYEALTLQAKEFQMPKSQE

[6] = biological target: T6, Substrate M (decamer containing the β-secretase cleavage site of Swedish mutant APP), non-labelled; experiment: cell-based or functional assay
T6 peptide: SEVNLDAEFR

[7] = biological target: T4, biotin-labeled Substrate M; experiment: plate assay: HC peptide chemically coupled to plate, bio-Sub M, Str-HRP, A450 (Table 2)
Description: as §1

[8] = biological target: T4, biotin-labeled Substrate M; experiment: plate assay: HC peptide chemically coupled to plate, bio-Sub M, Str-HRP, A450 (Table 1)
Description: as §1

[9] = biological target: T2, biotin-labeled Substrate W; experiment: plate assay: complementary peptide immobilised, biotinylated substrate, streptavidin-HRP

SEFCIQI-NH2 [c-Sub M ΔC3 (SEFCIQI)]
percent inhibition of f-Sub M cleavage by rhBACE1 (peptide 1 mM, f-Sub M 10 µM) [1]: > 90%

B1: c-Sub M (SEFCIQIHFR) (peptide)
peptide: SEFCIQIHFR-NH2
notes: Hydropathic complementary peptide designed from the antisense strand of Sub M, read 5'->3'; also called HC peptide c-Sub M
fold binding to Sub W relative to c-Sub W [2]: 4 fold | binding result [3]: no binding | percent inhibition of f-Sub M cleavage by rhBACE1 (FRET), peptide 100 fold over substrate [1]: ~50% | percent inhibition of f-Sub M cleavage by rhBACE1 (peptide 1 mM, f-Sub M 10 µM) [1]: 45% | binding result [4]: binds

FCIQIHF-NH2 [c-Sub M ΔN2C1 (FCIQIHF)]
binding result [2]: binds | percent of substrate cleavage by β-secretase blocked (HPLC), 25-fold inhibitor [5]: 25% | percent of substrate cleavage by β-secretase blocked (HPLC), 25-fold inhibitor [6]: ~60%

SEFCI-NH2 [c-Sub M ΔC5 (SEFCI)]
percent inhibition of f-Sub M cleavage by rhBACE1 (peptide 1 mM, f-Sub M 10 µM) [1]: > 90%

SEFCIQ-NH2 [c-Sub M ΔC4 (SEFCIQ)]
percent inhibition of f-Sub M cleavage by rhBACE1 (peptide 1 mM, f-Sub M 10 µM) [1]: > 90%

CIQIHF-NH2 (also called c-Sub MΔC1N3; c-Sub ΔN3C1) [c-Sub M ΔN3C1 (CIQIHF)]
binding result [2]: binds | inhibitory activity relative to c-Sub M ΔN1C1 (FRET, f-Sub M 10 µM) [1]: ~0.1 fold

B2: c-Sub M ΔN1C1 (EFCIQIHF) (peptide)
peptide: EFCIQIHF-NH2
notes: also called one amino acid deletion from N-terminal of c-Sub M ΔC1
fold binding to Sub W relative to c-Sub W [2]: 2.5 fold | percent inhibition of substrate cleavage by rhBACE1 (HPLC), inhibitor/substrate ratio 20 [5]: 40% | percent inhibition of substrate cleavage by rhBACE1 (HPLC), inhibitor/substrate ratio up to 10 [5]: ~10% | percent inhibition of substrate cleavage by rhBACE1 (HPLC), inhibitor/substrate ratio 20 [6]: 100% | percent inhibition of substrate cleavage by rhBACE1 (HPLC), inhibitor/substrate ratio up to 10 [6]: 60% | IC50 of inhibition of f-Sub M (10 µM) cleavage by rhBACE1 (FRET) [1]: 15 µM

SEFCIQIHF-NH2 (also called c-SubM CΔ1) [c-Sub M ΔC1 (SEFCIQIHF)]
binding result [7]: binds | percent inhibition of f-Sub M cleavage by rhBACE1 (peptide 1 mM, f-Sub M 10 µM) [1]: 90%

B3: Sub W-c (RLHFYLRLKA) (peptide)
peptide: RLHFYLRLKA-NH2
notes: Complementary peptide of Sub W read 3'->5'
binding result [8]: binds

SEFCIQIH-NH2 [c-Sub M ΔC2 (SEFCIQIH)]
percent inhibition of f-Sub M cleavage by rhBACE1 (peptide 1 mM, f-Sub M 10 µM) [1]: 44%

B4: c-Sub W (SEFCIHLHFR) (peptide)
peptide: SEFCIHLHFR-NH2
notes: Hydropathic complementary peptide designed from the antisense strand of Sub W, read 5'->3'
binding result [8]: binds | binding result [9]: binds
